Experimental data from patent US10654893B2, “Self-assembling peptide compositions” (3-D MATRIX, LTD., priority 2014, dated 2020).

Experiments:
Assay type in all cases: physicochemical
[1] = Visual observation of peptide compositions with selected salts (cloud point, critical ionic strength); conditions: for Observation: room temperature; for Conc. at cloud point / Ionic strength at cloud point: visual observation of solubility
Experimental: Visual observations of RADA16 (SEQ ID NO:1), KLD12 (SEQ ID NO:2), and IEIK13 (SEQ ID NO:3) compositions with selected salts (e.g. KCl, MgCl2, CaCl2) are summarized in Tables 7-9. […] Apparent stiffness of RADA16 (SEQ ID NO:1), KLD12 (SEQ ID NO:2) and IEIK13 (SEQ ID NO:3) compositions was increased with increased ionic strength.
Critical ion strengths were determined from the visual observations recorded in Tables 7-9. When the ionic strengths of peptide compositions were higher than 0.9 M (RADA16 (SEQ ID NO:1)), 0.3 M (KLD12 (SEQ ID NO:2)) or 0.03 M (IEIK13 (SEQ ID NO:3)), the peptide compositions began phase separation. 0.9 M, 0.3 M and 0.03 M may represent critical ion strengths for RADA16 (SEQ ID NO:1), KLD12 (SEQ ID NO:2) and IEIK13 (SEQ ID NO:3), respectively.

[2] = Vial inversion test of 0.5% RADA16 gels with CaCl2
Experimental: (§1) FIGS. 41A-41D depict the protocol used to follow peptide dissolution and to assess effects of particular anions and/or cations, and/or their concentration, on certain RADA16 (SEQ ID NO:1) compositions. As shown, peptide powder in a vial was dissolved in deionized water with vortexing and sonication. The particular peptide composition utilized in this Example was a 1% composition of RADA16 (SEQ ID NO:1) that was mixed at a 1:1 ratio with a 2× salt solution to obtain a final concentration of 0.5% RADA16 (SEQ ID NO:1) and the desired molar concentration of salt.
The protocol depicted in FIGS. 41A-41D was followed to prepare 0.5% solutions of RADA16 (SEQ ID NO:1) with different concentrations of CaCl2. Mixed solutions were allowed to sit for a relaxation period of about 24 hours. Vials were then inverted upside down so that gel properties could be assessed.

[3] = Stiffness and reversibility of RADA16 compositions with salts
Experimental: as §1
The protocol depicted in FIGS. 41A-41D was followed to analyze stiffness of peptide compositions containing either 2.5% RADA16 (SEQ ID NO:1) and no added salt or 2.5% RADA16 (SEQ ID NO:1) and 0.125 M CaCl2. Results are shown in FIG. 44, which provides a basic understanding of the viscoelastic properties of the resulting compositions.
The protocol depicted in FIGS. 41A-41D was followed to prepare solutions of 0.5% RADA16 mixed with 0.125, 0.25, or 0.5 M CaCl2 were prepared. The compositions were subjected to mechanical stress through vortexing and sonication, so that their structure was thoroughly disrupted (e.g., randomized). Disrupted compositions were then placed at room temperature for 48 hours to allow self-assembly to take place.

## Arg-Ala-Asp-Ala-Arg-Ala-Asp-Ala-Arg-Ala-Asp-Ala-Arg-Ala-Asp-Ala [RADA16]
[1]; RADA16 0.5%, DPBS (pH 3.2) 1.0 M, ionic strength 1.0 M
  Observation: Cloudy, phase-separated
[1]; RADA16 0.55%, DPBS (pH 3.2) 0.95 M, ionic strength 0.95 M
  Observation: Slightly cloudy, brittle gel
[1]; RADA16 0.6%, DPBS (pH 3.2) 0.9 M, ionic strength 0.9 M
  Observation: Clear, thick, stiffer gel
[1]; RADA16 0.75%, DPBS (pH 3.2) 0.75 M, ionic strength 0.75 M
  Observation: Clear, thick, stiffer gel
[1]; RADA16 0.9%, DPBS (pH 3.2) 0.6 M, ionic strength 0.6 M
  Observation: Clear, thick, stiffer gel
[1]; RADA16 0.93%, KCl 1.15 M, ionic strength 1.15 M
  Observation: Cloudy, phase-separated
[1]; RADA16 0.95%, KCl 1.1 M, ionic strength 1.1 M
  Observation: Slightly cloudy, brittle gel
[1]; RADA16 0.98%, KCl 1.05 M, ionic strength 1.05 M
  Observation: Slightly cloudy, thick,
[1]; RADA16 1.0%, KCl 1.0 M, ionic strength 1.0 M
  Observation: Clear, thick, stiffer gel
[1]; RADA16 1.0%, NaCl 1.0 M, ionic strength 1.0 M
  Observation: Cloudy, phase-separated
[1]; RADA16 1.03%, KCl 0.95 M, ionic strength 0.95 M
  Observation: Clear, thick, stiffer gel
[1]; RADA16 1.03%, NaCl 0.95 M, ionic strength 0.95 M
  Observation: Cloudy, phase-separated
[1]; RADA16 1.05%, DPBS (pH 3.2) 0.45 M, ionic strength 0.45 M
  Observation: Clear, thick, stiffer gel
[1]; RADA16 1.05%, KCl 0.9 M, ionic strength 0.9 M
  Observation: Clear, thick, stiffer gel
[1]; RADA16 1.05%, NaCl 0.9 M, ionic strength 0.9 M
  Observation: Slightly cloudy, brittle gel
[1]; RADA16 1.08%, NaCl 0.85 M, ionic strength 0.85 M
  Observation: Clear, thick, stiffer gel
[1]; RADA16 1.10%, NaCl 0.8 M, ionic strength 0.8 M
  Observation: Clear, thick, stiffer gel
[1]; RADA16 1.13%, KCl 0.75 M, ionic strength 0.75 M
  Observation: Clear, thick, stiffer gel
[1]; RADA16 1.13%, NaCl 0.75 M, ionic strength 0.75 M
  Observation: Clear, thick, stiffer gel
[1]; RADA16 1.2%, DPBS (pH 3.2) 0.3 M, ionic strength 0.3 M
  Observation: Clear, thick, stiffer gel
[1]; RADA16 1.2%, KCl 0.6 M, ionic strength 0.6 M
  Observation: Clear, thick, stiffer gel
[1]; RADA16 1.2%, NaCl 0.6 M, ionic strength 0.6 M
  Observation: Clear, thick, stiffer gel
[1]; RADA16 1.27%, KCl 0.45 M, ionic strength 0.45 M
  Observation: Clear, thick, stiffer gel
[1]; RADA16 1.27%, NaCl 0.45 M, ionic strength 0.45 M
  Observation: Clear, thick, stiffer gel
[1]; RADA16 1.28%, CaCl2 0.433 M, ionic strength 1.3 M
  Observation: Cloudy, phase-separated
[1]; RADA16 1.28%, MgCl2 0.433 M, ionic strength 1.3 M
  Observation: Cloudy, phase-separated
[1]; RADA16 1.29%, CaCl2 0.417 M, ionic strength 1.25 M
  Observation: Slightly cloudy, brittle gel
[1]; RADA16 1.29%, MgCl2 0.417 M, ionic strength 1.25 M
  Observation: Slightly cloudy, brittle gel
[1]; RADA16 1.3%, CaCl2 0.4 M, ionic strength 1.2 M
  Observation: Slightly cloudy, thick,
[1]; RADA16 1.3%, MgCl2 0.4 M, ionic strength 1.2 M
  Observation: Slightly cloudy, thick,
[1]; RADA16 1.31%, CaCl2 0.383 M, ionic strength 1.15 M
  Observation: Clear, thick, stiffer gel
[1]; RADA16 1.31%, MgCl2 0.383 M, ionic strength 1.15 M
  Observation: Clear, thick, stiffer gel
[1]; RADA16 1.32%, CaCl2 0.35 M, ionic strength 1.05 M
  Observation: Clear, thick, stiffer gel
[1]; RADA16 1.32%, MgCl2 0.35 M, ionic strength 1.05 M
  Observation: Clear, thick, stiffer gel
[1]; RADA16 1.35%, CaCl2 0.3 M, ionic strength 0.9 M
  Observation: Clear, thick, stiffer gel
[1]; RADA16 1.35%, DPBS (pH 3.2) 0.15 M, ionic strength 0.15 M
  Observation: Clear, thick, stiffer gel
[1]; RADA16 1.35%, KCl 0.3 M, ionic strength 0.3 M
  Observation: Clear, thick, stiffer gel
[1]; RADA16 1.35%, MgCl2 0.3 M, ionic strength 0.9 M
  Observation: Clear, thick, stiffer gel
[1]; RADA16 1.35%, NaCl 0.3 M, ionic strength 0.3 M
  Observation: Clear, thick, stiffer gel
[1]; RADA16 1.38%, CaCl2 0.25 M, ionic strength 0.75 M
  Observation: Clear, thick, stiffer gel
[1]; RADA16 1.38%, MgCl2 0.25 M, ionic strength 0.75 M
  Observation: Clear, thick, stiffer gel
[1]; RADA16 1.4%, CaCl2 0.2 M, ionic strength 0.6 M
  Observation: Clear, thick, stiffer gel
[1]; RADA16 1.4%, MgCl2 0.2 M, ionic strength 0.6 M
  Observation: Clear, thick, stiffer gel
[1]; RADA16 1.43%, CaCl2 0.15 M, ionic strength 0.45 M
  Observation: Clear, thick, stiffer gel
[1]; RADA16 1.43%, KCl 0.15 M, ionic strength 0.15 M
  Observation: Clear, thick, stiffer gel
[1]; RADA16 1.43%, MgCl2 0.15 M, ionic strength 0.45 M
  Observation: Clear, thick, stiffer gel
[1]; RADA16 1.43%, NaCl 0.15 M, ionic strength 0.15 M
  Observation: Clear, thick, stiffer gel
[1]; RADA16 1.45%, CaCl2 0.1 M, ionic strength 0.3 M
  Observation: Clear, thick, stiffer gel
[1]; RADA16 1.45%, MgCl2 0.1 M, ionic strength 0.3 M
  Observation: Clear, thick, stiffer gel
[1]; RADA16 1.48%, CaCl2 0.05 M, ionic strength 0.15 M
  Observation: Clear, thick, stiffer gel
[1]; RADA16 1.48%, MgCl2 0.05 M, ionic strength 0.15 M
  Observation: Clear, thick, stiffer gel
[1]; RADA16 1.5%, CaCl2 0 M, ionic strength 0 M
  Observation: Clear, thick gel
[1]; RADA16 1.5%, DPBS (pH 3.2) 0 M, ionic strength 0 M
  Observation: Clear, thick gel
[1]; RADA16 1.5%, KCl 0 M, ionic strength 0 M
  Observation: Clear, thick gel
[1]; RADA16 1.5%, MgCl2 0 M, ionic strength 0 M
  Observation: Clear, thick gel
[1]; RADA16 1.5%, NaCl 0 M, ionic strength 0 M
  Observation: Clear, thick gel
[1]; approximately, depending on salt identities
  Ionic strength range that did not noticeably change the opacity of compositions: 0.85˜1.15 M
[1]; from visual observations of Tables 7-9
  Critical ion strength (above it compositions began phase separation): 0.9 M
[1]; range over salts
  Critical ionic strength (when the composition becomes cloudy): 0.9˜1.2 M
[1]; salt CaCl2
  Conc. at cloud point: 0.383~0.4 M
  Ionic strength at cloud point: 1.15~1.2 M
[1]; salt DPBS (pH 3.2)
  Conc. at cloud point: 0.9~0.95 M
  Ionic strength at cloud point: 0.9~0.95 M
[1]; salt KCl
  Conc. at cloud point: 1.0~1.05 M
  Ionic strength at cloud point: 1.0~1.05 M
[1]; salt MgCl2
  Conc. at cloud point: 0.383~0.4 M
  Ionic strength at cloud point: 1.15~1.2 M
[1]; salt NaCl
  Conc. at cloud point: 0.85~0.9 M
  Ionic strength at cloud point: 0.85~0.9 M
[2]; 0.250 M CaCl2
  Gel functionality on vial inversion: fully functional gel
[2]; 0.500 M CaCl2
  Gel functionality on vial inversion: semi-functional gel
[2]; 1M CaCl2
  Gel functionality on vial inversion: non-functional gel
[3]; 0.5% RADA16, 0.125 or 0.25 M CaCl2, vortexing and sonication, 48 hours at room temperature
  Reversibility after mechanical perturbation: reversibility can be maintained
[3]; 0.5% RADA16, 0.5 M CaCl2, vortexing and sonication, 48 hours at room temperature
  Stiffness after disruption: dramatically less stiffness
[3]; 2.5% RADA16 and 0.125 M CaCl2 versus 2.5% RADA16
  Stiffness with salt versus no added salt: noticeable increase in stiffness
